# B1: GST-Homer fusion protein (rat Homer) used with hippocampal extracts (other)
# chain: GEQPIFSTRAHVFQIDPNTKKNWVPTSKHAVTVSYFYDSTRNVYRIISLDGSKAIINSTITPNMTFTKTSQKFGQWADSRANTVYGLGFSSEHHLSKFAEKFQEFKEAARLAKEKSQEKMELTSTPSQESAGGDLQSPLTPESINGTDDERTPDVTQNSEPRAEPAQNALPFSHRYTFNSAIMIK
# notes: also called Homer GST fusion protein; Homer GST-fusion protein; not shown: glutathione S-transferase (GST) fusion partner, bacterially expressed
# Molecular target: T1, native mGluR5 in detergent extracts of rat hippocampus (rat, UniProt P31424 21-1203, limits assumed)
# T1 construct: Native protein in tissue lysate
# Assay: in vitro binding assay with detergent extracts of hippocampus
# T1 sequence (P31424 21-1203 limits assumed): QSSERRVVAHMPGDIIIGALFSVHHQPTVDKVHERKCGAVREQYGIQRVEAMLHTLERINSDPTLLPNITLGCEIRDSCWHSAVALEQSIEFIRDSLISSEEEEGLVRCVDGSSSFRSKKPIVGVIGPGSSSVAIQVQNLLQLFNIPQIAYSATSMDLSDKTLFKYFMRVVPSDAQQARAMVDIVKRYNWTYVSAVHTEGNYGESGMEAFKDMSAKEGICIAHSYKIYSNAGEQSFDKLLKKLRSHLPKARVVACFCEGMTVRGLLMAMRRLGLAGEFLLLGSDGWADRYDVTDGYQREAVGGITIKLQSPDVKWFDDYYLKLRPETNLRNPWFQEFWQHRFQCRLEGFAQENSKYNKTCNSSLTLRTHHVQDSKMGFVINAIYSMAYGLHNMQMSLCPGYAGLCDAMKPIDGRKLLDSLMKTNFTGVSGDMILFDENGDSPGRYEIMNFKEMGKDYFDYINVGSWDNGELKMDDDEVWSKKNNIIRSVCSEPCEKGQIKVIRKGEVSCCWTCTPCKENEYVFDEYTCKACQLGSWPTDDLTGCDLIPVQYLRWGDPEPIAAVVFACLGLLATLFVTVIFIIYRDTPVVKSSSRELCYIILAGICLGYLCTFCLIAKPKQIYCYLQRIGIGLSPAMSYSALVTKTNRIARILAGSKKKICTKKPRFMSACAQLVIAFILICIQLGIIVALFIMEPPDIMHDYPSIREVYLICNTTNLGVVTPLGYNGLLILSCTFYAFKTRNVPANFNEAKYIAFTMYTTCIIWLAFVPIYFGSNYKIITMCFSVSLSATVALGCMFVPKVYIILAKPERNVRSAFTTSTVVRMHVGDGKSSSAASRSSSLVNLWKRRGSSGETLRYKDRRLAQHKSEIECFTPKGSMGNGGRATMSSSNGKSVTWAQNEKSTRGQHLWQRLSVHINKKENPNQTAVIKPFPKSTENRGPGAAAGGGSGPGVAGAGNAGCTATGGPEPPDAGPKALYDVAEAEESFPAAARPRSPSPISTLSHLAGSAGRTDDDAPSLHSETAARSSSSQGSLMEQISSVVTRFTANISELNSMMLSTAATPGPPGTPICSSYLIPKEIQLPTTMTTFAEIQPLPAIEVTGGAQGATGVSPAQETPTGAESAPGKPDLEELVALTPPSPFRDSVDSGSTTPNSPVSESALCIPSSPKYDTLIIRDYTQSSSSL
binder,measurement,value
B1,binding result,binds

# From patent US20060147914A1 (Johns Hopkins, published 2006)
